Consider 20 molecules from patent US9029508 (dated 2015).

Values joined by “and” are separate entries in the source; they are usually repeats but may differ in a detail not shown here. Identical values can stand only once. Like-named read-outs stand apart in the source and are kept apart here.

Test [1] concerns the target CD40 (human, UniProt P25942). The test can be described thus: ELISA.
Test [2] concerns the target T1, ErbB3 (human, UniProt P21860). Put plainly: ELISA. Background: ELISA stands for enzyme-linked immunosorbent assay.
Test [3] concerns the target T1, ErbB3. Put plainly: ELISA. This is another data set of the same source.
For test [4], the target named is T1, ErbB3. Put plainly: SPR. (SPR reads the build-up and loss of mass on a sensor chip optically.)
The target in test [5] is T2, IGF1 (human, UniProt P05019). Put plainly: ELISA.
For test [6], the target named is T2, IGF1. The test can be described thus: ELISA. This is another data set of the same source.
Test [7] concerns the target T3, IGF2 (human, UniProt P01344). Put plainly: ELISA.
Test [8] addresses T3, IGF2. The test can be described thus: SPR.
In test [9] the target is T2, IGF1. The test can be described thus: SPR.
In test [10] the target is T3, IGF2. The test can be described thus: ELISA. This is another data set of the same source.
Test [11] concerns the target T4, DLL4 (human, UniProt Q9NR61). The test can be described thus: SPR.
The target in test [12] is T4, DLL4. The test can be described thus: ELISA.
Test [13] has as its target T4, DLL4. Put plainly: competition.
The target in test [14] is T5, CD19 (human, UniProt P15391).
T5 chain: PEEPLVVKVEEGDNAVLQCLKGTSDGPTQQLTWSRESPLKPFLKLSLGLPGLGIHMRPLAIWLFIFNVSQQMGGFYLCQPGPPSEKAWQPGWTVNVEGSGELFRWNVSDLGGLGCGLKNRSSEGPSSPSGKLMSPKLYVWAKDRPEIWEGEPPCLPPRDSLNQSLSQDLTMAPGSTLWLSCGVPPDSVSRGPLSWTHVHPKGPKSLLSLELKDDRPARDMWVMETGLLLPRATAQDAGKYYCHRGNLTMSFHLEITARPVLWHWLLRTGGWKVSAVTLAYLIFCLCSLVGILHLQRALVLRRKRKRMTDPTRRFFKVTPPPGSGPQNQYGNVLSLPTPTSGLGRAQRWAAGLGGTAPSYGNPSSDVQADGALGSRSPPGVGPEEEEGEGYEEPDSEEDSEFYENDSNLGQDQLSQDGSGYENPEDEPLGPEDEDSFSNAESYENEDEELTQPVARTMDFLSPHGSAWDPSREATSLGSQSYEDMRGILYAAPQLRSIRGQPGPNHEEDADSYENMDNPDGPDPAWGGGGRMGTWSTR
The test can be described thus: ELISA.

Test [15] concerns the target T6, IGF1R (human, UniProt P08069). The test can be described thus: ELISA.
Test [16] has as its target T6, IGF1R. The test can be described thus: ELISA. This is another data set of the same source.
In test [17] the target is T6, IGF1R. The test can be described thus: SPR.

T4 sequence (Q9NR61 27-524): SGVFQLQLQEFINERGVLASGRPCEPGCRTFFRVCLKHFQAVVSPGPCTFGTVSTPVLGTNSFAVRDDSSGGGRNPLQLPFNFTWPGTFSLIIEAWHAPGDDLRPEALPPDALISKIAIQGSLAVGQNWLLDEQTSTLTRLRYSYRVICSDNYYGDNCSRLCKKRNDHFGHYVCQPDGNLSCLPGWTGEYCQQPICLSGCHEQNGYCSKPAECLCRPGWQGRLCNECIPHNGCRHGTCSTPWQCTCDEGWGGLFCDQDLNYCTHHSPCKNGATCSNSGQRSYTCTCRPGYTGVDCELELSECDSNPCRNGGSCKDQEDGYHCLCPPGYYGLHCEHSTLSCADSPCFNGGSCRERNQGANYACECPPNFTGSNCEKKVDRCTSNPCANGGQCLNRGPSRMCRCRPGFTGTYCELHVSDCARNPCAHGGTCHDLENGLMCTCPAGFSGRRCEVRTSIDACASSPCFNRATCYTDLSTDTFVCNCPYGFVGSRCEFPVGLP
Sequence of CD40 (P25942 21-193): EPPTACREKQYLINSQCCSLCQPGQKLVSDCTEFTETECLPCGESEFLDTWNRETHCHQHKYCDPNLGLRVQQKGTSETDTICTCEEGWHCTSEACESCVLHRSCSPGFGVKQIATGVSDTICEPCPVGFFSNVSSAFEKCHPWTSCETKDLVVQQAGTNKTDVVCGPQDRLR

B1: DVD010 CD40 arm (antibody, V domains shown)
VH: QVQLVESGGGVVQPGRSLRLSCAASGFTFSSYGMHWVRQAPGKGLEWVAVISYEESNRYHADSVKGRFTISRDNSKITLYLQMNSLRTEDTAVYYCARDGGIAAPGPDYWGQGTLVTVSS
VL: DIVMTQSPLSLTVTPGEPASISCRSSQSLLYSNGYNYLDWYLQKPGQSPQVLISLGSNRASGVPDRFSGSGSGTDFTLKISRVEAEDVGVYYCMQARQTPFTFGPGTKVDIRR
modifications: DVD-Ig outer
Broadly, the EC50 is the concentration at which the effect is half-maximal. A low value points to higher potency in that assay. B1 showed an EC50 in [1] of 0.82 nM.

B2: DVD009 CD40 arm (antibody, V domains shown)
VH: B1 VH
VL: B1 VL
modifications: DVD-Ig inner
Take B2: in [1], the 50% effective concentration (EC50) was 3.55 nM.

B3: AB009 (antibody, V domains shown)
VH: B1 VH
VL: B1 VL
B3 displayed a concentration for a half-maximal effect (EC50) in test [1] of 0.99 nM.

B4: AB063 (antibody, V domains shown)
VH: EVQLVESGGGLVQPGGSLRLSCAASGFTFSIYSMNWVRQAPGKGLEWVSYISSSSSTIYYADSVKGRFTISRDNAKNSLYLQMNSLRDEDTAVYYCARDRGDFDAFDIWGQGTMVTVSS
VL: DIQMTQSPSSLSASVGDRVTITCQASQDITNYLNWYQQKPGKAPKLLIYDASNLETGVPSRFSGSGSGTDFTFTISSLQPEDIATYNCQQCENFPITFGQGTRLEIKR
For orientation: Kd means the constant that tells how readily two partners part at equilibrium. High values mean lower affinity, low ones higher affinity. For B4, the half-maximal effective concentration (EC50) in [2] amounted to 0.67 nM; in test [3] it was 0.28 nM. This molecule also came in with a Kd in test [4] of 0.15 nM.

B5: DVD305 ErbB3 arm (antibody, V domains shown)
VH: B4 VH
VL: B4 VL
modifications: DVD-Ig outer
Consider B5, for which the figures for the EC50 in [2] and in [3] were 1.16 nM and 0.44 nM, respectively. Moreover, binding in test [4] was characterised by a dissociation constant (Kd) of 0.0603 nM.

B6: DVD306 ErbB3 arm (antibody, V domains shown)
VH: B4 VH
VL: B4 VL
modifications: DVD-Ig inner
B6: the results for the half-maximal effective concentration (EC50) in [2] and in test [3] were greater than 10 nM and 151 nM, respectively.

B7: AB010 (antibody, V domains shown)
VH: QVQLVQSGAEVKKPGASVKVSCKASGYTFTSYDINWVRQATGQGLEWMGWMNPNSGNTGYAQKFQGRVTMTRNTSISTAYMELSSLRSEDTAVYYCARDPYYYYYGMDVWGQGTTVTVSS
VL: QSVLTQPPSVSAAPGQKVTISCSGSSSNIENNHVSWYQQLPGTAPKLLIYDNNKRPSGIPDRFSGSKSGTSATLGITGLQTGDEADYYCETWDTSLSAGRVFGGGTKLTVLG
On to B7, for which the EC50 in [5] was 4.8 nM; in test [6], 4.77 nM; in test [7], 10 nM and 18.1 nM; in [10] it was 18.1 nM and 10 nM. In addition, the Kd in test [8] was < 0.000299 nM and 0.000423 nM; in [9] it was 0.388 nM.

B8: DVD030 IGF1,2 arm (antibody, V domains shown)
VH: B7 VH
VL: B7 VL
modifications: DVD-Ig outer
For the molecule B8, the 50% effective concentration (EC50) in test [5] came out at 1.8 nM; in [6] it was 1.75 nM; in test [7], 5.5 nM; in test [10], 5.49 nM. Besides, the equilibrium dissociation constant (Kd) came out at 0.00234 nM in [8] and 0.292 nM in test [9].

B9: DVD299 ErbB3 arm (antibody, V domains shown)
VH: QVQLQQWGAGLLKPSETLSLTCAVYGGSFSGYYWSWIRQPPGKGLEWIGEINHSGSTNYNPSLKSRVTISVETSKNQFSLKLSSVTAADTAVYYCARDKWTWYFDLWGRGTLVTVSS
VL: not shown
modifications: DVD-Ig outer
On to B9, for which the midpoint of the response in [3], the EC50, lay at 1.96 nM. The molecule further showed an equilibrium dissociation constant (Kd) in test [4] of 0.82 nM.

B10: AB062 (antibody, V domains shown)
VH: B9 VH
VL: not shown
On to B10, for which the 50% effective concentration (EC50) in test [2] was 0.26 nM; in test [3], 1.93 nM. Besides, in test [4], the dissociation constant Kd worked out at 1.36 nM.

B11: DVD257 DLL4 arm (antibody)
chain 1: EVQLVESGGGLVQPGGSLRLSCAASGFTFTDNWISWVRQAPGKGLEWVGYISPNSGFTYYADSVKGRFTISADTSKNTAYLQMNSLRAEDTAVYYCARDNFGGYFDYWGQGTLVTVSS
chain 2: DIQMTQSPSSLSASVGDRVTITCRASQDVSTAVAWYQQKPGKAPKLLIYSASFLYSGVPSRFSGSGSGTDFTLTISSLQPEDFATTYYCQQSYTGTVTFGQGTKVEIKR
modifications: DVD-Ig outer
By IC50 is commonly meant the concentration at which inhibition is half-maximal. B11 had a Kd in test [11] of 0.234 nM. In test [12], the response was half-maximal at 0.28 nM (EC50). Besides, the half-maximal inhibitory concentration (IC50) in test [13] was 0.38 nM.

B12: DVD002 CD19 arm (antibody, V domains shown)
VH: QVQLQQSGAELVRPGSSVKISCKASGYAFSSYWMNWVKQRPGQGLEWIGQIWPGDGDTNYNGKFKGKATLTADESSSTAYMQLSSLASEDSAVYFCARRETTTVGRYYYAMDYWGQGTSVTVSS
VL: DILLTQTPASLAVSLGQRATISCKASQSVDYDGDSYLNWYQQIPGQPPKLLIYDASNLVSGIPPRFSGSGSGTDFTLNIHPVEKVDAATYHCQQSTEDPWTFGGGTKLEIKR
modifications: DVD-Ig outer
In test [14], B12 returned a concentration for a half-maximal effect (EC50) of 0.07 nM.

B13: DVD001 CD19 arm (antibody, V domains shown)
VH: B12 VH
VL: B12 VL
modifications: DVD-Ig inner
Consider B13, for which, in [14], the EC50 was 12.9 nM.

B14: DVD014 CD19 arm (antibody, V domains shown)
VH: B12 VH
VL: B12 VL
modifications: DVD-Ig outer
In test [14], B14 returned an EC50 of 0.12 nM. This EC50 lies about 110-fold lower than the previous one.

B15: DVD013 CD19 arm (antibody, V domains shown)
VH: B12 VH
VL: B12 VL
modifications: DVD-Ig inner
Take B15: the EC50 in [14] was determined as 7.29 nM.

B16: DVD031 IGF1R arm (antibody, V domains shown)
VH: EVQLLESGGGLVQPGGSLRLSCTASGFTFSSYAMNWVRQAPGKGLEWVSAISGSGGTTFYADSVKGRFTISRDNSRTTLYLQMNSLRAEDTAVYYCAKDLGWSDSYYYYYGMDVWGQGTTVTVSS
VL: DIQMTQFPSSLSASVGDRVTITCRASQGIRNDLGWYQQKPGKAPKRLIYAASRLHRGVPSRFSGSGSGTEFTLTISSLQPEDFATYYCLQHNSYPCSFGQGTKLEIKR
modifications: DVD-Ig inner
As to B16, the EC50 in [15] and in test [16] was 171 nM in each case.

B17: DVD032 IGF1R arm (antibody, V domains shown)
VH: B16 VH
VL: B16 VL
modifications: DVD-Ig outer
B17: the EC50 in [15] is 0.2 nM; in [16], 0.16 nM. Also, the Kd in [17] was determined as 0.829 nM.

B18: AB011 (antibody, V domains shown)
VH: B16 VH
VL: B16 VL
B18: the concentration for a half-maximal effect (EC50) in test [15] was 0.3 nM; in test [16] it was 0.28 nM. Besides, in test [17], the dissociation constant Kd is 0.848 nM.

B19: DVD022 IGF1R arm (antibody, V domains shown)
VH: B16 VH
VL: B16 VL
modifications: DVD-Ig outer
As to B19, the 50% effective concentration (EC50) worked out at 0.3 nM in test [15] and 0.26 nM in [16]. The same molecule returned a Kd in test [17] of 0.778 nM.

B20: DVD021 IGF1R arm (antibody, V domains shown)
VH: B16 VH
VL: B16 VL
modifications: DVD-Ig inner
As to B20, the EC50 in test [15] and in test [16] was 135 nM each time.
